In PMC6210676:

Target: calcium/calmodulin dependent protein kinase IIα (UniProt Q9UQM7)
Sequence of UniProt Q9UQM7 (Q9UQM7 whole entry): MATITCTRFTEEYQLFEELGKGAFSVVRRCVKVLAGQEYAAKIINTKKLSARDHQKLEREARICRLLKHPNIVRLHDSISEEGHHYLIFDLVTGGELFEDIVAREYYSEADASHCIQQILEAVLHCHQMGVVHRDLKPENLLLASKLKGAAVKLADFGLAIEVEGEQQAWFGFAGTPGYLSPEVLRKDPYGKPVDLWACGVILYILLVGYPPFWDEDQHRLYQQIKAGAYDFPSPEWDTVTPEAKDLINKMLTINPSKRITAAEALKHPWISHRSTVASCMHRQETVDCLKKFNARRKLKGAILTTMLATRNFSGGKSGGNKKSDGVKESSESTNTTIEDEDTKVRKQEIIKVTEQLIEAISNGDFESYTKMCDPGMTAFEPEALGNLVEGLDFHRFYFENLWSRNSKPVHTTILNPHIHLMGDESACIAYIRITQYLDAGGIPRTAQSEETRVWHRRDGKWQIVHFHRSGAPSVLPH

Row | Substance | half maximal activation of CaMKIIα (phosphorylation of syntide-2, HPLC), calmodulin 10^-9 to 10^-6 M, 0.5 mM calcium chloride, 37° [nM]
1 | MetO77 calmodulin (from UniProt P0DP23 1-149) (natural protein) | 129
2 | wild type calmodulin (recombinant, human) (from UniProt P0DP23 1-149) (natural protein) | 64
